According to US20030103975A1 (published 2003):

Molecular target: human fibronectin (BD Biosciences) (human, UniProt P02751-8 32-2296, limits assumed)
Assay: solid-phase saturation binding ELISA: coated fibronectin at varying concentrations, soluble integrin at 5 ng/µl, detected with LM609
Method: FIGS. 3A-D. Wells of a 96-well plate were coated with varying concentrations of G⁹¹⁹⁻¹²⁰⁷, G⁹¹⁹⁻¹⁰¹⁸ and G¹⁰¹⁶⁻¹²⁰⁷ (A) or fibronectin (B). αvβ3 integrin (5 ng/μl) was then added to, allowed to bind for 1 h at 37° C., and binding evaluated by ELISA using LM609 followed by a secondary antibody conjugated to alkaline phosphatase. […] is a competition binding curve. Soluble αvβ3 (5 ng/μl) was added to wells coated with G⁹¹⁹⁻¹²⁰⁷ in the presence of increasing concentrations of fibronectin at 37° C. […] In all studies, absorbance was measured at 405 nm. Each of the graphs is representative of at least three separate experiments.
ELISA Assays. Wells of 96-well non-tissue culture treated plates were coated with protein at varying concentrations for 18 h at 4° C. Each well was rinsed three times and blocked with 1% BSA in PBS for 1 h at 37° C. Soluble integrin heterodimers were diluted in binding buffer (25 mM Tris buffer, […], 1 mM MgCl2, 0.5 mM MnCl2, 0.05% BSA, pH 7.5) and added to each well for a final concentration of 5 ng/μl. After incubating for 90 min at 37° C. wells were rinsed three times in binding buffer and appropriate mouse monoclonal anti-integrin antibody was added for 1 h at 37° C. […] Absorbance at 405 nm was measured with a Vmax plate reader (Molecular Devices, Menlo Park, Calif.). Nonspecific binding was determined by the addition of 10 mM EDTA to binding buffer. […]

human fibronectin (BD Biosciences), sequence (P02751 other isoform, or with tags, fused parts or gaps limits assumed): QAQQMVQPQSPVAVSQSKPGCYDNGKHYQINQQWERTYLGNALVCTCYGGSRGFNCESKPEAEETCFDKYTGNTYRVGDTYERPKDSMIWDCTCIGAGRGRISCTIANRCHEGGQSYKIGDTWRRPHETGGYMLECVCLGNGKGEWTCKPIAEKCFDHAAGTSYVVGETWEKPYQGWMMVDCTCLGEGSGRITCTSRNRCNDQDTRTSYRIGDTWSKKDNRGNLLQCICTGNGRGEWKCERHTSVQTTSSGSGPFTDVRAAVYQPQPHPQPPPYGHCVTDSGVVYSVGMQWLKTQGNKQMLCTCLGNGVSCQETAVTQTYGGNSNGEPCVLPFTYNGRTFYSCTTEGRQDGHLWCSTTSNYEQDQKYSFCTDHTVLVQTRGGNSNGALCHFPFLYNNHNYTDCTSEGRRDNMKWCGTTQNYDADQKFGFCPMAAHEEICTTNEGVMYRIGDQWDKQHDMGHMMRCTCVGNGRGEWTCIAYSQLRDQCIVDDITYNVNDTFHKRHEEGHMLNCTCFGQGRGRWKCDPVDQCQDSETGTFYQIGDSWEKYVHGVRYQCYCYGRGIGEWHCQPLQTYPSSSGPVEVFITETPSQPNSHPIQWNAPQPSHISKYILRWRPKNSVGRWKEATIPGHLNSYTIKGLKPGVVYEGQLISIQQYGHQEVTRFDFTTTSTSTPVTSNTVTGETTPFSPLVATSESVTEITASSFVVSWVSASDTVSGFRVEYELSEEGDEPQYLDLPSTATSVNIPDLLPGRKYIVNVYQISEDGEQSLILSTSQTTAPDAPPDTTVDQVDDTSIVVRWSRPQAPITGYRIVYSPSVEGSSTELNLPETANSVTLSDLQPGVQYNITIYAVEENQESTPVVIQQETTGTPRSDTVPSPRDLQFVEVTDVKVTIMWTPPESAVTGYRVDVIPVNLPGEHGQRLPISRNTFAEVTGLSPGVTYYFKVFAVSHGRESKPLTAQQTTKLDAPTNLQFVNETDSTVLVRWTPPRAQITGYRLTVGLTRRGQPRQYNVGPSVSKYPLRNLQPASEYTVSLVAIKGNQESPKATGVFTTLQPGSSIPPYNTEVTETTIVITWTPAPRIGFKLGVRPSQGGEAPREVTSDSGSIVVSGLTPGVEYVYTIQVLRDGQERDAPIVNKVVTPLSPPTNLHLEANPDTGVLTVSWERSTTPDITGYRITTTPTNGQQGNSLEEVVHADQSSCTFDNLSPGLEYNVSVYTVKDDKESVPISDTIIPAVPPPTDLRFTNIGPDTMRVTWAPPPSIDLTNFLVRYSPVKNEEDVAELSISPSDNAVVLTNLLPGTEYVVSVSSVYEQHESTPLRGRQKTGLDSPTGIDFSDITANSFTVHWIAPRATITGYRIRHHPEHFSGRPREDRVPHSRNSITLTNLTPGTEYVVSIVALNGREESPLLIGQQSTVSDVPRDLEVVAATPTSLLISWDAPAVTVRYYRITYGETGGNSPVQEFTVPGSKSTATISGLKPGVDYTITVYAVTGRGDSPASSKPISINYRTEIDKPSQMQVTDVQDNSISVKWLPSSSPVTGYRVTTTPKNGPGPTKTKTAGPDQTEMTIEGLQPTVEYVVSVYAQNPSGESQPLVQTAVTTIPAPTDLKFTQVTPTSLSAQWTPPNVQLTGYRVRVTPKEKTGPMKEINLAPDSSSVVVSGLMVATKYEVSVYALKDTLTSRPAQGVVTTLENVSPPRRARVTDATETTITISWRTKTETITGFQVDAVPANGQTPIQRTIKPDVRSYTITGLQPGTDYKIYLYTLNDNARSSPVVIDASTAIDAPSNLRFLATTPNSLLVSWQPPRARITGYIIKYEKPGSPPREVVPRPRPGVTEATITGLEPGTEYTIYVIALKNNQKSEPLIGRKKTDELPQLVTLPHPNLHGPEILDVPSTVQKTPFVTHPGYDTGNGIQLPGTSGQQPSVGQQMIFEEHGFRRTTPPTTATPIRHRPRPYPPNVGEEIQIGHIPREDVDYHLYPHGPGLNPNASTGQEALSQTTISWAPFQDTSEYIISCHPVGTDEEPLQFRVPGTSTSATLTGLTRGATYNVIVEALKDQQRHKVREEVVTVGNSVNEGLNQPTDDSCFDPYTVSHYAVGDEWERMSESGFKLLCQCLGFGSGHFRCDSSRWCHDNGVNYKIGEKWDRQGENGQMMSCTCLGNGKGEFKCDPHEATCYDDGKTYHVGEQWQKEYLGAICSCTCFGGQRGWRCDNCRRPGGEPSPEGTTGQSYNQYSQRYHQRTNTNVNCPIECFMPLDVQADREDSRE

B1: soluble αvβ3 integrin heterodimer (Chemicon International) (receptor)
chain 1: FNLDVDSPAEYSGPEGSYFGFAVDFFVPSASSRMFLLVGAPKANTTQPGIVEGGQVLKCDWSSTRRCQPIEFDATGNRDYAKDDPLEFKSHQWFGASVRSKQDKILACAPLYHWRTEMKQEREPVGTCFLQDGTKTVEYAPCRSQDIDADGQGFCQGGFSIDFTKADRVLLGGPGSFYWQGQLISDQVAEIVSKYDPNVYSIKYNNQLATRTAQAIFDDSYLGYSVAVGDFNGDGIDDFVSGVPRAARTLGMVYIYDGKNMSSLYNFTGEQMAAYFGFSVAATDINGDDYADVFIGAPLFMDRGSDGKLQEVGQVSVSLQRASGDFQTTKLNGFEVFARFGSAIAPLGDLDQDGFNDIAIAAPYGGEDKKGIVYIFNGRSTGLNAVPSQILEGQWAARSMPPSFGYSMKGATDIDKNGYPDLIVGAFGVDRAILYRARPVITVNAGLEVYPSILNQDNKTCSLPGTALKVSCFNVRFCLKADGKGVLPRKLNFQVELLLDKLKQKGAIRRALFLYSRSPSHSKNMTISRGGLMQCEELIAYLRDESEFRDKLTPITIFMEYRLDYRTAADTTGLQPILNQFTPANISRQAHILLDCGEDNVCKPKLEVSVDSDQKKIYIGDDNPLTLIVKAQNQGEGAYEAELIVSIPLQADFIGVVRNNEALARLSCAFKTENQTRQVVCDLGNPMKAGTQLLAGLRFSVHQQSEMDTSVKFDLQIQSSNLFDKVSPVVSHKVDLAVLAAVEIRGVSSPDHVFLPIPNWEHKENPETEEDVGPVVQHIYELRNNGPSSFSKAMLHLQWPYKYNNNTLLYILHYDIDGPMNCTSDMEINPLRIKISSLQTTEKNDTVAGQGERDHLITKRDLALSEGDIHTLGCGVAQCLKIVCQVGRLDRGKSAILYVKSLLWTETFMNKENQNHSYSLKSSASFNVIEFPYKNLPIEDITNSTLVTTNVTWGIQPAPMPV
chain 2: GPNICTTRGVSSCQQCLAVSPMCAWCSDEALPLGSPRCDLKENLLKDNCAPESIEFPVSEARVLEDRPLSDKGSGDSSQVTQVSPQRIALRLRPDDSKNFSIQVRQVEDYPVDIYYLMDLSYSMKDDLWSIQNLGTKLATQMRKLTSNLRIGFGAFVDKPVSPYMYISPPEALENPCYDMKTTCLPMFGYKHVLTLTDQVTRFNEEVKKQSVSRNRDAPEGGFDAIMQATVCDEKIGWRNDASHLLVFTTDAKTHIALDGRLAGIVQPNDGQCHVGSDNHYSASTTMDYPSLGLMTEKLSQKNINLIFAVTENVVNLYQNYSELIPGTTVGVLSMDSSNVLQLIVDAYGKIRSKVELEVRDLPEELSLSFNATCLNNEVIPGLKSCMGLKIGDTVSFSIEAKVRGCPQEKEKSFTIKPVGFKDSLIVQVTFDCDCACQAQAEPNSHRCNNGNGTFECGVCRCGPGWLGSQCECSEEDYRPSQQDECSPREGQPVCSQRGECLCGQCVCHSSDFGKITGKYCECDDFSCVRYKGEMCSGHGQCSCGDCLCDSDWTGYYCNCTTRTDTCMSSNGLLCSGRGKCECGSCVCIQPGSYGDTCEKCPTCPDACTFKKECVECKKFDRGALHDENTCNRYCRDEIESVKELKDTGKDAVNCTYKNEDDCVVRFQYYEDSSGKSILYVVEEPECPKGPD
notes: Bought
- Kd: 15 nM
